Experimental data as given in paper PMC5775914 (Cell chemical biology, 2017).

Target: fluorescein-labeled histone H3 N-terminal peptide (residues 1-21) (UniProt P68431 2-22, fluorescein-labeled (position not given))
Test: fluorescence polarisation

B1: recombinant UBR7 PHD finger (domain or fragment)
chain: GLYCICKRPYPDPEDEIPDEMIQCVVCEDWFHGRHLGAIPPESGDFQEMVCQACMKR
Kd: 50 to 100 µM
